The record followed here is PMC4113144, “IRF-1 regulates alternative mRNA splicing of carcinoembryonic antigen-related cell adhesion molecule 1 (CEACAM1) in breast epithelial cells generating an immunoreceptor tyrosine-based inhibition motif”.

For the series, the target named is T1, IRF-1 (UniProt P10914 1-325).
T1 sequence: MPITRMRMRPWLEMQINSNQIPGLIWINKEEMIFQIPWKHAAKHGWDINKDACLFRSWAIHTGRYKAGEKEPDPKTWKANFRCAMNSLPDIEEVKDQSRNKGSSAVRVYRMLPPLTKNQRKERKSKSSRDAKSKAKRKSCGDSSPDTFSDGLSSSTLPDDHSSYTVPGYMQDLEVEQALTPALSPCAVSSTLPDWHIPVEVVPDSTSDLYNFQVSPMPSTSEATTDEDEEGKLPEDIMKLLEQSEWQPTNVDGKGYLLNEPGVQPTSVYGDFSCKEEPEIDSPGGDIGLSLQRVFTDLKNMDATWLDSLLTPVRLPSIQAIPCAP
The series can be described thus: EMSA; 17 pmol IRF-1 : 0.3 pmol DNA lowest ratio; mostly C1 plus C2 complexes; LightShift 1X binding buffer, 5% glycerol, 10 mM MgCl2, 200 ng poly(dI-dC), 0.3 pmol labeled DNA in 10 ul, room temperature 30 min; 6% DNA retardation gel; pH and salt not given. Conditions: protein: commercial; tags: His; label: IRDye 700. In general terms: A gel shift assay detects complexes by their altered migration in electrophoresis.

B1: CEACAM1 ISRE WT 60-mer (dsDNA)
DNA 1: TGGGAAACCAAAATGTAGACAGAAAGGAAAGAGAAAGTAAGGACAAAGGTAGGAATGAGA
DNA 2: TCTCATTCCTACCTTTGTCCTTACTTTCTCTTTCCTTTCTGTCTACATTTTGGTTTCCCA
As to B1, the binding result was “binds”.
